Target: T1, 肉毒毒素AHC片段 (UniProt P0DPI1 873-1296)
T1 construct: domain: AHC片段
Experiment: ELISA, coated antigen, anti-human IgG-HRP

T1 sequence (P0DPI1 873-1296 limits assumed): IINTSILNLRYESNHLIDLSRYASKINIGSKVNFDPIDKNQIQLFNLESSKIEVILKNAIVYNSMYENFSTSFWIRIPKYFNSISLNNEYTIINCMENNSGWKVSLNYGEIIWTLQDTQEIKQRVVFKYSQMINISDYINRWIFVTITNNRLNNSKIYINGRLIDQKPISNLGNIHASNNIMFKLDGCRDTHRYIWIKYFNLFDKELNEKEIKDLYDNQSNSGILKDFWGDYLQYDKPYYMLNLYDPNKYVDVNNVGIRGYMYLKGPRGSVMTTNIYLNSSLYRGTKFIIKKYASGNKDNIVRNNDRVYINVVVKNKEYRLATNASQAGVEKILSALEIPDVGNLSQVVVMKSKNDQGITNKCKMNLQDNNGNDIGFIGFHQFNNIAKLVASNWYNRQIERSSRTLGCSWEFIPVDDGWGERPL

B1: 人鼠嵌合全抗体mhC3 (antibody, V domains shown)
VH: EVQLVESGGDLVKPGGSLKLSCAASGFTFNTYAMNWVRQTPGKGLEWVARIRSKSNNYATYYADSVKDRFTISRDDSQSMLYLQMNNLKTEDTAMYYCVTPYYGNYADWFTYWGQGTSVTVSS
VL: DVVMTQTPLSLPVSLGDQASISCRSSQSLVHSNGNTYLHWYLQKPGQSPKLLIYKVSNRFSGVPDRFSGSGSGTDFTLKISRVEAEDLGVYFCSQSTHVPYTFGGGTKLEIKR
notes: also called mhC3抗体; C3 (图5、图6)
B1: no binding (tested: 300μg/mL).

Source: CN111995674A (INST MILITARY MEDICINE ACADEMY MILITARY SCIENCES PLA, dated 2020)
